We go through one molecule from publication PMC3606643.

The target in one series is T1, HNF4α DBD (DBD-hinge) (human, UniProt P41235-2 55-135).
T1 sequence: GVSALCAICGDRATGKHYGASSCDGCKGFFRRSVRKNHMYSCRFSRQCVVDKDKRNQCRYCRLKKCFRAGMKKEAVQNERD
The series is described as follows: fluorescence anisotropy. A general note: In fluorescence polarisation assays a small probe gives low polarisation when free and higher when bound to something large.

For series [1], the target named is T2, HNF4α ΔABΔF (DBD-hinge-LBD) (human, UniProt P41235-2 55-377).
T2 sequence: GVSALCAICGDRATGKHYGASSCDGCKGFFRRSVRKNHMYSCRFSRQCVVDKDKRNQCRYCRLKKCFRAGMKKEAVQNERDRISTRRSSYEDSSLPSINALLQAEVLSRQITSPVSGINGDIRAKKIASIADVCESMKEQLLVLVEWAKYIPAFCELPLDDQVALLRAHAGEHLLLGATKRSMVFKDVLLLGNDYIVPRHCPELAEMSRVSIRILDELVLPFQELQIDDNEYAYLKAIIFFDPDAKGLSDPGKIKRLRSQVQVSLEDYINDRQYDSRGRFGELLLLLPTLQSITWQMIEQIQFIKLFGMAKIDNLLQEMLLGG
Put plainly: fluorescence anisotropy.

B1: DR1 (5'-fluorescein top strand) (dsDNA)
DNA 1: GGAACTAGGTCAAAGGTCAG
DNA 2: CCTGACCTTTGACCTAGTTC
As a reminder, the Kd is the concentration at which binding is half-saturated. Regarding B1, the values for the Kd (in the series with HNF4α DBD (DBD-hinge); in series [1]) were around 6 µM and 0.082 µM, respectively.
